Data published in US20200270325A1 (Merck Sharp & Dohme, published 2020).
Numbered stars: 1 amine (or outer) side, 2 acyl side, 3 side chain; on linkers, the order of the positions; unused ones are H or OH. Square brackets hold non-standard residues; d marks the D form. Side chains are listed from the residue outwards. Ends that are not written are not given here. * marks the point of attachment. C16 diacid = O=C(O)CCCCCCCCCCCCCCC(=O)*; γGlu = O=C(O)[C@H](CCC(=O)[*:2])N[*:1]; Met(O2) = CS(=O)(=O)CC[C@H](N)C(=O)O; AEEA = NCCOCCOCC(=O)O; Aib = CC(C)(N)C(=O)O

B1: TP811 (peptide)
peptide: H[Aib]QGTFTSDYSKYLD[Aib]RAAQDFVK([AEEA-AEEA-γGlu-C16 diacid])WL[Met(O2)]DT-NH2
modifications: N-terminus assumed
SMILES: CC(C)C[C@H](NC(=O)[C@H](Cc1c[nH]c2ccccc12)NC(=O)[C@H](CCCCNC(=O)COCCOCCNC(=O)COCCOCCNC(=O)CC[C@H](NC(=O)CCCCCCCCCCCCCCC(=O)O)C(=O)O)NC(=O)[C@@H](NC(=O)[C@H](Cc1ccccc1)NC(=O)[C@H](CC(=O)O)NC(=O)[C@H](CCC(N)=O)NC(=O)[C@H](C)NC(=O)[C@H](C)NC(=O)[C@H](CCCNC(=N)N)NC(=O)C(C)(C)NC(=O)[C@H](CC(=O)O)NC(=O)[C@H](CC(C)C)NC(=O)[C@H](Cc1ccc(O)cc1)NC(=O)[C@H](CCCCN)NC(=O)[C@H](CO)NC(=O)[C@H](Cc1ccc(O)cc1)NC(=O)[C@H](CC(=O)O)NC(=O)[C@H](CO)NC(=O)[C@@H](NC(=O)[C@H](Cc1ccccc1)NC(=O)[C@@H](NC(=O)CNC(=O)[C@H](CCC(N)=O)NC(=O)C(C)(C)NC(=O)[C@@H](N)Cc1c[nH]cn1)[C@@H](C)O)[C@@H](C)O)C(C)C)C(=O)N[C@@H](CCS(C)(=O)=O)C(=O)N[C@@H](CC(=O)O)C(=O)N[C@H](C(N)=O)[C@@H](C)O
B2: TP826 (peptide)
peptide: H[Aib]QGTFTSDYSKYLDARAAK([AEEA-AEEA-γGlu-C16 diacid])DFVQWL[Met(O2)][γGlu]T-NH2
modifications: N-terminus assumed
SMILES: CC(C)C[C@H](NC(=O)[C@H](Cc1ccc(O)cc1)NC(=O)[C@H](CCCCN)NC(=O)[C@H](CO)NC(=O)[C@H](Cc1ccc(O)cc1)NC(=O)[C@H](CC(=O)O)NC(=O)[C@H](CO)NC(=O)[C@@H](NC(=O)[C@H](Cc1ccccc1)NC(=O)[C@@H](NC(=O)CNC(=O)[C@H](CCC(N)=O)NC(=O)C(C)(C)NC(=O)[C@@H](N)Cc1c[nH]cn1)[C@@H](C)O)[C@@H](C)O)C(=O)N[C@@H](CC(=O)O)C(=O)N[C@@H](C)C(=O)N[C@@H](CCCNC(=N)N)C(=O)N[C@@H](C)C(=O)N[C@@H](C)C(=O)N[C@@H](CCCCNC(=O)COCCOCCNC(=O)COCCOCCNC(=O)CC[C@H](NC(=O)CCCCCCCCCCCCCCC(=O)O)C(=O)O)C(=O)N[C@@H](CC(=O)O)C(=O)N[C@@H](Cc1ccccc1)C(=O)N[C@H](C(=O)N[C@@H](CCC(N)=O)C(=O)N[C@@H](Cc1c[nH]c2ccccc12)C(=O)N[C@@H](CC(C)C)C(=O)N[C@@H](CCS(C)(=O)=O)C(=O)N[C@@H](CCC(=O)N[C@H](C(N)=O)[C@@H](C)O)C(=O)O)C(C)C
B3: TP812 (peptide)
peptide: H[Aib]QGTFTSDYSKYLDARAAK([AEEA-AEEA-γGlu-C16 diacid])EFVQWL[Met(O2)]DT-NH2
modifications: N-terminus assumed
SMILES: CC(C)C[C@H](NC(=O)[C@H](Cc1ccc(O)cc1)NC(=O)[C@H](CCCCN)NC(=O)[C@H](CO)NC(=O)[C@H](Cc1ccc(O)cc1)NC(=O)[C@H](CC(=O)O)NC(=O)[C@H](CO)NC(=O)[C@@H](NC(=O)[C@H](Cc1ccccc1)NC(=O)[C@@H](NC(=O)CNC(=O)[C@H](CCC(N)=O)NC(=O)C(C)(C)NC(=O)[C@@H](N)Cc1c[nH]cn1)[C@@H](C)O)[C@@H](C)O)C(=O)N[C@@H](CC(=O)O)C(=O)N[C@@H](C)C(=O)N[C@@H](CCCNC(=N)N)C(=O)N[C@@H](C)C(=O)N[C@@H](C)C(=O)N[C@@H](CCCCNC(=O)COCCOCCNC(=O)COCCOCCNC(=O)CC[C@H](NC(=O)CCCCCCCCCCCCCCC(=O)O)C(=O)O)C(=O)N[C@@H](CCC(=O)O)C(=O)N[C@@H](Cc1ccccc1)C(=O)N[C@H](C(=O)N[C@@H](CCC(N)=O)C(=O)N[C@@H](Cc1c[nH]c2ccccc12)C(=O)N[C@@H](CC(C)C)C(=O)N[C@@H](CCS(C)(=O)=O)C(=O)N[C@@H](CC(=O)O)C(=O)N[C@H](C(N)=O)[C@@H](C)O)C(C)C
B4: TP814 (peptide)
peptide: H[Aib]QGTFTSDYSKYLDARAAK([AEEA-AEEA-γGlu-C16 diacid])DFVQWL[Met(O2)]ET-NH2
modifications: N-terminus assumed
SMILES: CC(C)C[C@H](NC(=O)[C@H](Cc1ccc(O)cc1)NC(=O)[C@H](CCCCN)NC(=O)[C@H](CO)NC(=O)[C@H](Cc1ccc(O)cc1)NC(=O)[C@H](CC(=O)O)NC(=O)[C@H](CO)NC(=O)[C@@H](NC(=O)[C@H](Cc1ccccc1)NC(=O)[C@@H](NC(=O)CNC(=O)[C@H](CCC(N)=O)NC(=O)C(C)(C)NC(=O)[C@@H](N)Cc1c[nH]cn1)[C@@H](C)O)[C@@H](C)O)C(=O)N[C@@H](CC(=O)O)C(=O)N[C@@H](C)C(=O)N[C@@H](CCCNC(=N)N)C(=O)N[C@@H](C)C(=O)N[C@@H](C)C(=O)N[C@@H](CCCCNC(=O)COCCOCCNC(=O)COCCOCCNC(=O)CC[C@H](NC(=O)CCCCCCCCCCCCCCC(=O)O)C(=O)O)C(=O)N[C@@H](CC(=O)O)C(=O)N[C@@H](Cc1ccccc1)C(=O)N[C@H](C(=O)N[C@@H](CCC(N)=O)C(=O)N[C@@H](Cc1c[nH]c2ccccc12)C(=O)N[C@@H](CC(C)C)C(=O)N[C@@H](CCS(C)(=O)=O)C(=O)N[C@@H](CCC(=O)O)C(=O)N[C@H](C(N)=O)[C@@H](C)O)C(C)C
B5: TP813 (peptide)
peptide: H[Aib]QGTFTSDYSKYLDARAAQEFVK([AEEA-AEEA-γGlu-C16 diacid])WL[Met(O2)]DT-NH2
modifications: N-terminus assumed
SMILES: CC(C)C[C@H](NC(=O)[C@H](Cc1ccc(O)cc1)NC(=O)[C@H](CCCCN)NC(=O)[C@H](CO)NC(=O)[C@H](Cc1ccc(O)cc1)NC(=O)[C@H](CC(=O)O)NC(=O)[C@H](CO)NC(=O)[C@@H](NC(=O)[C@H](Cc1ccccc1)NC(=O)[C@@H](NC(=O)CNC(=O)[C@H](CCC(N)=O)NC(=O)C(C)(C)NC(=O)[C@@H](N)Cc1c[nH]cn1)[C@@H](C)O)[C@@H](C)O)C(=O)N[C@@H](CC(=O)O)C(=O)N[C@@H](C)C(=O)N[C@@H](CCCNC(=N)N)C(=O)N[C@@H](C)C(=O)N[C@@H](C)C(=O)N[C@@H](CCC(N)=O)C(=O)N[C@@H](CCC(=O)O)C(=O)N[C@@H](Cc1ccccc1)C(=O)N[C@H](C(=O)N[C@@H](CCCCNC(=O)COCCOCCNC(=O)COCCOCCNC(=O)CC[C@H](NC(=O)CCCCCCCCCCCCCCC(=O)O)C(=O)O)C(=O)N[C@@H](Cc1c[nH]c2ccccc12)C(=O)N[C@@H](CC(C)C)C(=O)N[C@@H](CCS(C)(=O)=O)C(=O)N[C@@H](CC(=O)O)C(=O)N[C@H](C(N)=O)[C@@H](C)O)C(C)C
B6: TP825 (peptide)
peptide: H[Aib]QGTFTSDYSKYLDARAAQK([AEEA-AEEA-γGlu-C16 diacid])FVQWL[Met(O2)]ET-NH2
modifications: N-terminus assumed
SMILES: CC(C)C[C@H](NC(=O)[C@H](Cc1ccc(O)cc1)NC(=O)[C@H](CCCCN)NC(=O)[C@H](CO)NC(=O)[C@H](Cc1ccc(O)cc1)NC(=O)[C@H](CC(=O)O)NC(=O)[C@H](CO)NC(=O)[C@@H](NC(=O)[C@H](Cc1ccccc1)NC(=O)[C@@H](NC(=O)CNC(=O)[C@H](CCC(N)=O)NC(=O)C(C)(C)NC(=O)[C@@H](N)Cc1c[nH]cn1)[C@@H](C)O)[C@@H](C)O)C(=O)N[C@@H](CC(=O)O)C(=O)N[C@@H](C)C(=O)N[C@@H](CCCNC(=N)N)C(=O)N[C@@H](C)C(=O)N[C@@H](C)C(=O)N[C@@H](CCC(N)=O)C(=O)N[C@@H](CCCCNC(=O)COCCOCCNC(=O)COCCOCCNC(=O)CC[C@H](NC(=O)CCCCCCCCCCCCCCC(=O)O)C(=O)O)C(=O)N[C@@H](Cc1ccccc1)C(=O)N[C@H](C(=O)N[C@@H](CCC(N)=O)C(=O)N[C@@H](Cc1c[nH]c2ccccc12)C(=O)N[C@@H](CC(C)C)C(=O)N[C@@H](CCS(C)(=O)=O)C(=O)N[C@@H](CCC(=O)O)C(=O)N[C@H](C(N)=O)[C@@H](C)O)C(C)C
B7: TP815 (peptide)
peptide: H[Aib]QGTFTSDYSKYLD[Aib]RAAQDFVK([AEEA-AEEA-γGlu-C16 diacid])WL[Met(O2)]ET-NH2
modifications: N-terminus assumed
SMILES: CC(C)C[C@H](NC(=O)[C@H](Cc1c[nH]c2ccccc12)NC(=O)[C@H](CCCCNC(=O)COCCOCCNC(=O)COCCOCCNC(=O)CC[C@H](NC(=O)CCCCCCCCCCCCCCC(=O)O)C(=O)O)NC(=O)[C@@H](NC(=O)[C@H](Cc1ccccc1)NC(=O)[C@H](CC(=O)O)NC(=O)[C@H](CCC(N)=O)NC(=O)[C@H](C)NC(=O)[C@H](C)NC(=O)[C@H](CCCNC(=N)N)NC(=O)C(C)(C)NC(=O)[C@H](CC(=O)O)NC(=O)[C@H](CC(C)C)NC(=O)[C@H](Cc1ccc(O)cc1)NC(=O)[C@H](CCCCN)NC(=O)[C@H](CO)NC(=O)[C@H](Cc1ccc(O)cc1)NC(=O)[C@H](CC(=O)O)NC(=O)[C@H](CO)NC(=O)[C@@H](NC(=O)[C@H](Cc1ccccc1)NC(=O)[C@@H](NC(=O)CNC(=O)[C@H](CCC(N)=O)NC(=O)C(C)(C)NC(=O)[C@@H](N)Cc1c[nH]cn1)[C@@H](C)O)[C@@H](C)O)C(C)C)C(=O)N[C@@H](CCS(C)(=O)=O)C(=O)N[C@@H](CCC(=O)O)C(=O)N[C@H](C(N)=O)[C@@H](C)O

molecular target: human Glucagon receptor (GCGR) (human, UniProt P47871 26-477); test: cell-based or functional assay
Sequence (P47871 26-477): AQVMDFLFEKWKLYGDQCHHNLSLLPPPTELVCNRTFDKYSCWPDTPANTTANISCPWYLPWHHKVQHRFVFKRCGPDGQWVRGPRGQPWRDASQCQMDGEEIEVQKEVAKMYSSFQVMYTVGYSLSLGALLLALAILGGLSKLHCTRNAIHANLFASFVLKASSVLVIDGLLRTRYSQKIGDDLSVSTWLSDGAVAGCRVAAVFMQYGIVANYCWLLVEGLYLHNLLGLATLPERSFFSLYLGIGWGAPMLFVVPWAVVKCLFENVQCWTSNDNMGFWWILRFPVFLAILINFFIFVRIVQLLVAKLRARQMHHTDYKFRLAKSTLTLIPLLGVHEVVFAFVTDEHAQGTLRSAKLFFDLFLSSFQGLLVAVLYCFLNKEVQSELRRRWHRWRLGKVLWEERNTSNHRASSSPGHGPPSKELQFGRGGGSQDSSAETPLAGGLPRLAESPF

In order of rising “GCGR EC50 human” value:
1. B6  0.07 nM
2. B7  0.084 nM
3. B4  0.156 nM
4. B3  0.2 nM
5. B1  0.21 nM
6. B5  0.21 nM
7. B2  0.67 nM

molecular target: human GLP-1 receptor (GLP1R) (human, UniProt P43220 24-463); test: cell-based or functional assay

In order of rising “GLP1R EC50 human” value:
1. B6  0.036 nM
2. B4  0.078 nM
3. B3  0.088 nM
4. B7  0.12 nM
5. B5  0.14 nM
6. B2  0.253 nM
7. B1  0.26 nM
